Measured values published in IntAct's records for PubMed 31515488.

B1: Zyxin (Homo sapiens), Q15942 (parent)
chain: MAAPRPSPAISVSVSAPAFYAPQKKFGPVVAPKPKVNPFRPGDSEPPPAPGAQRAQMGRVGEIPPPPPEDFPLPPPPLAGDGDDAEGALGGAFPPPPPPIEESFPPAPLEEEIFPSPPPPPEEEGGPEAPIPPPPQPREKVSSIDLEIDSLSSLLDDMTKNDPFKARVSSGYVPPPVATPFSSKSSTKPAAGGTAPLPPWKSPSSSQPLPQVPAPAQSQTQFHVQPQPQPKPQVQLHVQSQTQPVSLANTQPRGPPASSPAPAPKFSPVTPKFTPVASKFSPGAPGGSGSQPNQKLGHPEALSAGTGSPQPPSFTYAQQREKPRVQEKQHPVPPPAQNQNQVRSPGAPGPLTLKEVEELEQLTQQLMQDMEHPQRQNVAVNELCGRCHQPLARAQPAVRALGQLFHIACFTCHQCAQQLQGQQFYSLEGAPYCEGCYTDTLEKCNTCGEPITDRMLRATGKAYHPHCFTCVVCARPLEGTSFIVDQANRPHCVPDYHKQYAPRCSVCSEPIMPEPGRDETVRVVALDKNFHMKCYKCEDCGKPLSIEADDNGCFPLDGHVLCRKCHTARAQT
partner: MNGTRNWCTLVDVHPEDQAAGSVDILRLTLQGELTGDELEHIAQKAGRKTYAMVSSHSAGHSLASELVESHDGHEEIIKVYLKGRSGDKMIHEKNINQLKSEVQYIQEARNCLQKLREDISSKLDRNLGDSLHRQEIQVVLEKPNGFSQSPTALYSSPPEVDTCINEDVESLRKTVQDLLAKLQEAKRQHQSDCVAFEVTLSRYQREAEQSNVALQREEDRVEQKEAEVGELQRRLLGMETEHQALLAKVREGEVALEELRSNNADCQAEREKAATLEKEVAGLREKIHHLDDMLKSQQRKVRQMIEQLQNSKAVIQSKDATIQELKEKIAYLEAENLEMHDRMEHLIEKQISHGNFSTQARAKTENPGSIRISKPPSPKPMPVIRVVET
B2: DNA endonuclease RBBP8 (Homo sapiens), Q99708 (parent)
chain: MNISGSSCGSPNSADTSSDFKDLWTKLKECHDREVQGLQVKVTKLKQERILDAQRLEEFFTKNQQLREQQKVLHETIKVLEDRLRAGLCDRCAVTEEHMRKKQQEFENIRQQNLKLITELMNERNTLQEENKKLSEQLQQKIENDQQHQAAELECEEDVIPDSPITAFSFSGVNRLRRKENPHVRYIEQTHTKLEHSVCANEMRKVSKSSTHPQHNPNENEILVADTYDQSQSPMAKAHGTSSYTPDKSSFNLATVVAETLGLGVQEESETQGPMSPLGDELYHCLEGNHKKQPFEESTRNTEDSLRFSDSTSKTPPQEELPTRVSSPVFGATSSIKSGLDLNTSLSPSLLQPGKKKHLKTLPFSNTCISRLEKTRSKSEDSALFTHHSLGSEVNKIIIQSSNKQILINKNISESLGEQNRTEYGKDSNTDKHLEPLKSLGGRTSKRKKTEEESEHEVSCPQASFDKENAFPFPMDNQFSMNGDCVMDKPLDLSDRFSAIQRQEKSQGSETSKNKFRQVTLYEALKTIPKGFSSSRKASDGNCTLPKDSPGEPCSQECIILQPLNKCSPDNKPSLQIKEENAVFKIPLRPRESLETENVLDDIKSAGSHEPIKIQTRSDHGGCELASVLQLNPCRTGKIKSLQNNQDVSFENIQWSIDPGADLSQYKMDVTVIDTKDGSQSKLGGETVDMDCTLVSETVLLKMKKQEQKGEKSSNEERKMNDSLEDMFDRTTHEEYESCLADSFSQAADEEEELSTATKKLHTHGDKQDKVKQKAFVEPYFKGDERETSLQNFPHIEVVRKKEERRKLLGHTCKECEIYYADMPAEEREKKLASCSRHRFRYIPPNTPENFWEVGFPSTQTCMERGYIKEDLDPCPRPKRRQPYNAIFSPKGKEQKT
B3: MIF4G domain-containing protein (Homo sapiens), A9UHW6 (parent)
chain: MGEPSREEYKIQSFDAETQQLLKTALKDPGAVDLEKVANVIVDHSLQDCVFSKEAGRMCYAIIQAESKQAGQSVFRRGLLNRLQQEYQAREQLRARSLQGWVCYVTFICNIFDYLRVNNMPMMALVNPVYDCLFRLAQPDSLSKEEEVDCLVLQLHRVGEQLEKMNGQRMDELFVLIRDGFLLPTGLSSLAQLLLLEIIEFRAAGWKTTPAAHKYYYSEVSD
partner: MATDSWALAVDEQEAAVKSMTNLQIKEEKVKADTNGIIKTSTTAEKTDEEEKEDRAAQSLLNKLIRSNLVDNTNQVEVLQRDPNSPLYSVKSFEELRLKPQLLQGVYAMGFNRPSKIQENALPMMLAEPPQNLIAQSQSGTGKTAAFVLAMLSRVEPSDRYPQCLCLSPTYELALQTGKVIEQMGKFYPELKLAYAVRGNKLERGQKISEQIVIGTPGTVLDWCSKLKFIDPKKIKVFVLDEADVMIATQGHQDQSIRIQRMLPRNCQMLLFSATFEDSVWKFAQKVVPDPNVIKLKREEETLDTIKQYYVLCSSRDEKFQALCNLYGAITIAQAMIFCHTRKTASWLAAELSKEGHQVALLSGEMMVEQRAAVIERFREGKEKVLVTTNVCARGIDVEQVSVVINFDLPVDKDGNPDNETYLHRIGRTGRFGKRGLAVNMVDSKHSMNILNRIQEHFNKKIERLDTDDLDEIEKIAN
B4: Cytosolic 5'-nucleotidase 1A (Homo sapiens), Q9BXI3 (parent)
chain: MEPGQPREPQEPREPGPGAETAAAPVWEEAKIFYDNLAPKKKPKSPKPQNAVTIAVSSRALFRMDEEQQIYTEQGVEEYVRYQLEHENEPFSPGPAFPFVKALEAVNRRLRELYPDSEDVFDIVLMTNNHAQVGVRLINSINHYDLFIERFCMTGGNSPICYLKAYHTNLYLSADAEKVREAIDEGIAAATIFSPSRDVVVSQSQLRVAFDGDAVLFSDESERIVKAHGLDRFFEHEKAHENKPLAQGPLKGFLEALGRLQKKFYSKGLRLECPIRTYLVTARSAASSGARALKTLRSWGLETDEALFLAGAPKGPLLEKIRPHIFFDDQMFHVAGAQEMGTVAAHVPYGVAQTPRRTAPAKQAPSAQ
B5: E3 ubiquitin-protein ligase TRIM69 (Homo sapiens), Q86WT6 (parent)
chain: MEVSTNPSSNIDPGDYVEMNDSITHLPSKVVIQDITMELHCPLCNDWFRDPLMLSCGHNFCEACIQDFWRLQAKETFCPECKMLCQYNNCTFNPVLDKLVEKIKKLPLLKGHPQCPEHGENLKLFSKPDGKLICFQCKDARLSVGQSKEFLQISDAVHFFTEELAIQQGQLETTLKELQTLRNMQKEAIAAHKENKLHLQQHVSMEFLKLHQFLHSKEKDILTELREEGKALNEEMELNLSQLQEQCLLAKDMLVSIQAKTEQQNSFDFLKDITTLLHSLEQGMKVLATRELISRKLNLGQYKGPIQYMVWREMQDTLCPGLSPLTLDPKTAHPNLVLSKSQTSVWHGDIKKIMPDDPERFDSSVAVLGSRGFTSGKWYWEVEVAKKTKWTVGVVRESIIRKGSCPLTPEQGFWLLRLRNQTDLKALDLPSFSLTLTNNLDKVGIYLDYEGGQLSFYNAKTMTHIYTFSNTFMEKLYPYFCPCLNDGGENKEPLHILHPQ

Variants of: B1
Conditions: with tuft1_human TUFT1, Q9NNX1

effect of a mutation on the interaction	Variant
with no effect	H223L

Variants of: B2
Conditions: with lims1_human LIMS1, P48059
Sequence of lims1_human LIMS1, P48059 (P48059 whole entry): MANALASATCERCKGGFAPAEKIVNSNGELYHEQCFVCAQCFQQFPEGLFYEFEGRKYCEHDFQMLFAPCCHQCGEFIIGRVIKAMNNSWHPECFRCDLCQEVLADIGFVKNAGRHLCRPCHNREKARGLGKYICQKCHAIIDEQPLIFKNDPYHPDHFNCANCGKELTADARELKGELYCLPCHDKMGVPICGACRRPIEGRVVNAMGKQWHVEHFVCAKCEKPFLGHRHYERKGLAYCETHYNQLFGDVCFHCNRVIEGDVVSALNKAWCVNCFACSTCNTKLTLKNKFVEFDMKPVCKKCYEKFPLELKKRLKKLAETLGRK

effect of a mutation on the interaction	Variant
with no effect	E320K

Variants of: B3
Conditions: with dd19a_human DDX19A

effect of a mutation on the interaction	Variant
with no effect	E160K

Variants of: B4
Conditions: with ntaq1_human NTAQ1, Q96HA8

effect of a mutation on the interaction	Variant
with no effect	Y34C

Variants of: B5
Conditions: with at5g1_human ATP5MC1, P05496
Sequence of at5g1_human ATP5MC1, P05496 (P05496 whole entry): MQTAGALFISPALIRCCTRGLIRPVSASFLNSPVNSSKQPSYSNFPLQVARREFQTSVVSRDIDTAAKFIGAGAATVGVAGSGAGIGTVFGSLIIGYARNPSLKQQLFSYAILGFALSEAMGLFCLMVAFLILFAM

effect of a mutation on the interaction	Variant
with no effect	Q301H

Variants of: B5
Conditions: with maga4_human MAGEA4, P43358
Sequence of maga4_human MAGEA4, P43358 (P43358 whole entry): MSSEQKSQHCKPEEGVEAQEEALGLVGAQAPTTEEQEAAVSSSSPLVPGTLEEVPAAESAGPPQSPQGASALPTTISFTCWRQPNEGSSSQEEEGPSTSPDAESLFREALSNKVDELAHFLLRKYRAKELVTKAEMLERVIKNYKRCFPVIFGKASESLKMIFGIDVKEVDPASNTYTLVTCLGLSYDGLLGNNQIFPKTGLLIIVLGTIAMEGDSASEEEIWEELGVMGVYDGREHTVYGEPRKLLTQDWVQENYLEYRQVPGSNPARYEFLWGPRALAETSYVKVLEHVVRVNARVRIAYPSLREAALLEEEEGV

effect of a mutation on the interaction	Variant
with no effect	Q301H
